Measurements reported in PMC11294453, “Cryo-EM structure of a conjugative type IV secretion system suggests a molecular switch regulating pilus biogenesis” (The EMBO Journal, 2024).

B1: TrwF/VirB9 (natural protein)
chain: LDVPSSSRYDHRIRYVTYNPADVVQVDTVLGVATHIMLEEGEQYLTHAFGIPKPMPLPGRAGIFLSSRTAELANTNLIVVTDRRSYKFRLQMRNDRNGAMYELAFRYPDTQARQTREANARAAVEAAFEQRVGAYYNLKYMMSGDKDIAPVNAWDDGRFTYFKFSANADLPSIYFVDAEGNESLVPRTTVGSSNNIIAVHKVNPKWMIRLGNRALAIFNEAYDPNGVPNDTGTASPAVRRVNKGGN
notes: TrwF, the VirB9 homologue of the type IV secretion system encoded by the conjugative plasmid R388; NTD in the I-layer, CTD in the O-layer, linker helix residues 128 to 150; also called TrwF/VirB9NTD; VirB9CTD; source: R388 T4SS complexes expressed and purified from membranes as described previously (Mace et al, 2022)
B2: TrwI/VirB6 (natural protein)
chain: MAFELFTPLFNKIDQTTATYVTDISSRAIAAITPVVSVGLTLGFITYGWLIIRGAVEMPVAEFLNRCLRIGIIVSIALAGGLYQGEIANAITTVPDELASALLGNPTEGASAAALVDQSAQQGFDRASEAFEEAGFFSSDGLLYGLFGIIIPAGYGPAGAIGGAFLLLAKIALALLAGLGPLFILALIWQPTHRFFDQWAQQVLNYGLLIVLFAAVFGLLMQIFGSYMADLRFDGAQNVAYAIGGSVILSIVSIVLLMQLPSIASGLAGGIGLGYMWELRSMRSGAGAAMRGGRAMARGARAAPGAARGAAVGAANMAKTVATGGAGVARAAAGYFRGRKAG
notes: TrwI, the VirB6 homologue of the type IV secretion system encoded by the conjugative plasmid R388; TM region (α1 and α2) is residues 30-82; also called TrwI/VirB6TM; VirB6_(α1α2TM); source: R388 T4SS complexes expressed and purified from membranes as described previously (Mace et al, 2022)
B3: TrwE/VirB10 (natural protein)
chain: MFGRKKGDVIDAGAELERAEQERIEGEYGASELASERRPHTPGARTLLMVLLCVIAVVLVTLSYKAYKVRGVVEDDDAQPQQVVRQVIPGYTPRPIRPEPENVPEPPQPTTSVPAIQPAPVTQPVRPQPTGPREKTPYELARERMLRSGLTAGSGGGEDLPRPQGGDVPAGGLMGGGGGGGELAEKLQPMRLSGSSAGRLGNRDMLITQGTQLDCVLETRLVTTQPGMTTCHLTRDVYSTSGRVVLLDRGSKVVGFYQGGLRQGQARIFVQWSRIETPSGVVINLDSPGTGPLGEAGLGGWIDRHFWERFGGAIMISLIGDLGDWASRQGSRQGNNSIQFSNTANGVESAAAEALRNSINIPPTLYKNQGERVNILVARDLDFSDVYSLESIPTK
notes: TrwE, the VirB10 homologue of the type IV secretion system encoded by the conjugative plasmid R388; residues 21-69, 83-101, 135-153 and 177-395 are described in the structures; the first 20 residues are invisible; also called TrwE/VirB10NTD; VirB10NT; source: R388 T4SS complexes expressed and purified from membranes as described previously (Mace et al, 2022)
B4: TrwM/VirB3 (natural protein)
chain: MKPPQQQHEAFPLFKGATRLPTILGEPMIPLMAMVMGVAVIALTVSIWWWALVPPLWFIMAQITKNDDKAFRIWWLWIDTKFRNRNKGFWGASSYSPANYRKRR
notes: TrwM, the VirB3 homologue of the type IV secretion system encoded by the conjugative plasmid R388; source: R388 T4SS complexes expressed and purified from membranes as described previously (Mace et al, 2022)
B5: TrwK/VirB4 (enzyme)
chain: MGAIESRKLLASETPVGQFIPYSHHVTDTIISTKNAEYLSVWKIDGRSHQSASEADVFQWIRELNNTLRGISSANLSLWTHIVRRRVYEYPDAEFDNVFCRQLDEKYRESFTGYNLMVNDLYLTVVYRPVSDKVLSFFAKRERETPDQKKHRQESCIKALEDINRTLGQSFKRYGAELLSVYEKGGHAFSAPLEFLARLVNGEHIPMPICRDRFSDYMAVNRPMFSKWGEVGELRSLTGLRRFGMLEIREYDDATEPGQLNVLLESDYEFVLTHSFSVLSRPAAKEYLQRHQKNLIDARDVATDQIEEIDEALNQLISGHFVMGEHHCTLTVYGETVQQVRDNLAHASAAMLDVAVLPKPVDLALEAGYWAQLPANWQWRPRPAPITSLNFLSFSPFHNFMSGKPTGNPWGPAVTILKTVSGTPLYFNFHASKEEEDATDKRLLGNTMLIGQSSSGKTVLLGFLLAQAQKFKPTIVAFDKDRGMEISIRAMGGRYLPLKTGEPSGFNPFQLPPTHANLIFLKQFVKKLAAAGGEVTHRDEEEIDQAITAMMSDSIDKSLRRLSLLLQFLPNPRSDDMDARPTVHARLVKWCEGGDYGWLFDNPTDALDLSTHQIYGFDITEFLDNPEARTPVMMYLLYRTESMIDGRRFMYVFDEFWKPLQDEYFEDLAKNKQKTIRKQNGIFVFATQEPSDALESNIAKTLIQQCATYIFLANPKADYEDYTQGFKLTDSEFELVRGLGEFSRRFLIKQGDQSALAEMNLGKFRTIVDGETVERDFDDELLVLSGTPDNAEIAESIIAEVGDDPAVWLPIFLDRVKAERSDV
notes: TrwK, the VirB4 ATPase of the type IV secretion system encoded by the conjugative plasmid R388; also called TrwK/VirB4_(central); TrwK/VirB4_(outside); source: R388 T4SS complexes expressed and purified from membranes as described previously (Mace et al, 2022)
B6: TrwG/VirB8 (natural protein)
chain: MSKKQPKPVKAEQLKSYYEESRGLERDLIGEFVKSRKTAWRVATASGLFGLLGMVCGIVGFSQPAPAPLVLRVDNATGAVDVVTTLREHESSYGEVVDTYWLNQYVLNREAYDYNTIQMNYDTTALLSAPAVQQDYYKLFDGSNARDRVLGNKARITVRVRSIQPNGRGQATVRFTTQQHNSNGTVERPQHQIATIGYTYIGAPMRSSDRLLNPLGFQVTSYRADPEILNN
notes: TrwG, the VirB8 homologue of the type IV secretion system encoded by the conjugative plasmid R388; also called TrwG/VirB8_(peri); TrwG/VirB8_(tail); source: R388 T4SS complexes expressed and purified from membranes as described previously (Mace et al, 2022)
B7: TrwH/VirB7 (natural protein, UniProt O50334 17-47, looked up)
chain: CASAPKPKQPSDFNREPVNKTVPVEIQRGAL
notes: TrwH, the VirB7 homologue of the type IV secretion system encoded by the conjugative plasmid R388; source: R388 T4SS complexes expressed and purified from membranes as described previously (Mace et al, 2022)
B8: TrwJ/VirB5 (natural protein, UniProt O50331 23-226, looked up)
chain: QGIPVFDGTRALDFVQQFARMKEQLDTAKDQLAEAQRMYEAVTGGRGLGDLMRNAQLREYLPDDLRTVYDSANGGGYSGISGSINDILRDERLNGSVADMRRSIEERSRTARTTDKAVGCGPTKGHSNASRRLKDEISRTQDQKAIEELQARIAGEQAAIQNETTKLQMIAQLRQAEQALISEQRRERNMPILSSGNQGMPTIQ
notes: TrwJ, the VirB5 homologue of the type IV secretion system encoded by the conjugative plasmid R388; residues Gln23-Ala33 newly built; source: R388 T4SS complexes expressed and purified from membranes as described previously (Mace et al, 2022)

Key:
[1] = target: B3; assay: cryo-EM structure; R388 T4SS complex purified from membranes; OMCC maps: O-layer with C14 symmetry (2.46 Å), I-layer with C16 symmetry (2.69 Å), OMCC conformations A, B and C without symmetry; conditions: both partners purified
[2] = target: B3; assay: cryo-EM structure; R388 T4SS complex purified from membranes; extended IMC protomer map without symmetry, 3.83 Å, with the Stalk-Arches-IMC map at 4.33 Å; conditions: both partners purified
[3] = target: B5; assay: as above; conditions: both partners purified
[4] = target: the molecule itself; assay: cryo-EM structure; R388 T4SS complex purified from membranes; OMCC maps: O-layer with C14 symmetry (2.46 Å), I-layer with C16 symmetry (2.69 Å), OMCC conformations A, B and C without symmetry
[5] = target: the molecule itself; assay: cryo-EM structure; R388 T4SS complex purified from membranes; extended IMC protomer map without symmetry, 3.83 Å, with the Stalk-Arches-IMC map at 4.33 Å
[6] = target: B3; assay: cryo-EM structure; R388 T4SS complex purified from membranes; Arches map without symmetry, 6.22 Å; secondary structures only, no side chains; conditions: both partners purified
[7] = target: the molecule itself; assay: as above
[8] = target: B1; assay: cryo-EM structure; R388 T4SS complex purified from membranes; OMCC maps: O-layer with C14 symmetry (2.46 Å), I-layer with C16 symmetry (2.69 Å), OMCC conformations A, B and C without symmetry; conditions: both partners purified
[9] = target: B2; assay: cryo-EM structure; R388 T4SS complex purified from membranes; Stalk map with C5 symmetry applied, 2.97 Å; conditions: both partners purified

B1
binding result [1]: binds

B2
binding result [2]: binds

B3
binding result [3]: binds | binding result [4]: binds

B4
binding result [2]: binds | binding result [3]: binds

B5
binding result [5]: binds

B6
binding result [3]: binds | binding result [6]: binds | stoichiometry N [7]: 24 subunits

B7
binding result [1]: binds | binding result [8]: binds

B8
binding result [9]: binds
